B1: Nanobody or Nanobody construct of SEQ ID NO: 80 (VHH)
VHH: EVQLVESGGGLVQPGGSLRLSCAASRSIGRLDRMGWYRHRPGEPRELVATITGGSSINYGDSVKGRFTISIDNSKNTVYLQMNSLRPEDTAVYYCNFNKYVTSRDTWGQGTLVQVGG
B2: Nanobody or Nanobody construct of SEQ ID NO: 89 (VHH)
VHH: B1 VHH with L11S, P14A
B3: Nanobody or Nanobody construct of SEQ ID NO: 82 (VHH)
VHH: B1 VHH with P87A, Q114T, G116S, G117S
B4: Nanobody or Nanobody construct of SEQ ID NO: 81 (VHH)
VHH: B1 VHH with L11V, Q114T, G116S, G117S
B5: Nanobody or Nanobody construct of SEQ ID NO: 87 (VHH)
VHH: B1 VHH with L11S, Q114T
B6: Nanobody or Nanobody construct of SEQ ID NO: 85 (VHH)
VHH: B1 VHH with L11S
B7: Nanobody or Nanobody construct of SEQ ID NO: 84 (VHH)
VHH: B1 VHH with Q114T, G117S
B8: Nanobody or Nanobody construct of SEQ ID NO: 83 (VHH)
VHH: B1 VHH with T90A, Q114T, G116S, G117S
B9: Example 1C: (A14P,R39Q,K83R,T91Y,Q108L) (VHH)
VHH: EVQLVESGGGLVQPGGSLRLSCAASGRTFNNYAMGWFRQAPGKEREFVAAITRSGVRSGVSAIYGDSVKDRFTISRDNAKNTLYLQMNSLRPEDTAVYYCAASAIGSGALRRFEYDYSGQGTLVTVSS
B10: Example 1C: (A14P,K83R,Q108L) (VHH)
VHH: B9 VHH with Q39R, Y99T

10 molecules from patent EP4350345A2 can be followed below.

Numbering of substitutions follows the chain as printed. In names and notes the source's numbering stands.

For the first assay, the target named is monoclonal antibody 21-4-3. Kind of assay: SPR, 21-4-3 captured via anti-mouse IgG, 500 nM. In general terms: In SPR one partner is held on a chip, and binding of the other changes the refractive index at the surface.
monoclonal antibody 21-4-3, sequence (VH, as listed by the source, chain 1 of 2): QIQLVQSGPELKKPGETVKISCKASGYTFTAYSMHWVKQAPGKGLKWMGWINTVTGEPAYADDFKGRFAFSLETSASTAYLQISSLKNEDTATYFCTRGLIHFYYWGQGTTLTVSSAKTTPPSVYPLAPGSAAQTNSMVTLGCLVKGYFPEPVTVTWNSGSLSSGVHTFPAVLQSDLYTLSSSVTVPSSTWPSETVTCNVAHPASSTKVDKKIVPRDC
monoclonal antibody 21-4-3, sequence (VL, as listed by the source, chain 2 of 2): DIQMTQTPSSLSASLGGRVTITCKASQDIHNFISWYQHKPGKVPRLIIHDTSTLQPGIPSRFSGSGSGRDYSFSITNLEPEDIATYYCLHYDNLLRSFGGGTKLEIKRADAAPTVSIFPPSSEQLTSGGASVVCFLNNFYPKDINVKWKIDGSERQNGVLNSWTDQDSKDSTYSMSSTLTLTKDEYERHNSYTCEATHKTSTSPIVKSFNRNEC
Turning to B1, the binding as % of Reference Sequence (=100%) came out at 51%.

Consider B2, for which the binding as % of Reference Sequence (=100%) worked out at 2%.

Regarding B3, the binding as % of Reference Sequence (=100%) came to 56%.

For B4, the binding as % of Reference Sequence (=100%) worked out at 75%.

Molecule B5 came in with a binding as % of Reference Sequence (=100%) of 41%.

B6 had a binding as % of Reference Sequence (=100%) of 32%.

With B7, the binding as % of Reference Sequence (=100%) worked out at 91%.

B8 had a binding as % of Reference Sequence (=100%) of 79%.

A further assay has as its target purified interference factor(s) from serum of Donor C. Kind of assay: SPR, interference factor on CM5 chip.
On to B1, for which the binding as % of Reference Sequence (=100%) came out at 58%.

For the molecule B2, the binding as % of Reference Sequence (=100%) was determined as 17%.

The molecule B3 yielded a binding as % of Reference Sequence (=100%) of 100%.

In turn, B4 returned a binding as % of Reference Sequence (=100%) of 89%.

B5 had a binding as % of Reference Sequence (=100%) of 39%.

In the case of B6, the binding as % of Reference Sequence (=100%) stood at 42%.

The molecule B7 registered a binding as % of Reference Sequence (=100%) of 83%.

The molecule B8 returned a binding as % of Reference Sequence (=100%) of 61%.

A further assay has as its target purified interference factor(s) from serum of Donor B. In words: SPR, interference factor on CM5 chip.
Regarding B1, the binding as % of Reference Sequence (=100%) was 5%.

Take B2: the binding as % of Reference Sequence (=100%) was determined as 5%.

B3 displayed a binding as % of Reference Sequence (=100%) of 80%.

Consider B4, for which the binding as % of Reference Sequence (=100%) came to 50%.

As to B5, the binding as % of Reference Sequence (=100%) came out at 5%.

In turn, B6 showed a binding as % of Reference Sequence (=100%) of 5%.

Molecule B7 had a binding as % of Reference Sequence (=100%) of 50%.

The molecule B8 displayed a binding as % of Reference Sequence (=100%) of 73%.

Another assay concerns the target purified interference factor(s) from serum of Donor A. Kind of assay: SPR, interference factor on CM5 chip.
As to B1, the binding as % of Reference Sequence (=100%) is 65%.

On to B2, for which the binding as % of Reference Sequence (=100%) was determined as 14%.

With B3, the binding as % of Reference Sequence (=100%) was found to be 96%.

The molecule B4 yielded a binding as % of Reference Sequence (=100%) of 94%.

As to B5, the binding as % of Reference Sequence (=100%) was found to be 51%.

B6 came in with a binding as % of Reference Sequence (=100%) of 46%.

As to B7, the binding as % of Reference Sequence (=100%) came out at 84%.

As for B8, the binding as % of Reference Sequence (=100%) amounted to 56%.

The next assay addresses affinity purified antibody IHuP#002-001-ABL-08. In words: ECL bridging/competition assay, 10 ug/ml ISV with 400 ng/ml analytical antibody; competitor of labelled ISV.
For the molecule B9, the % reduction was found to be 91.4% and the ECLU confirmatory assay stood at 251 ECLU.

In turn, B10 displayed a % reduction of 89.1% and an ECLU confirmatory assay of 319 ECLU.

For another assay, the target named is antibodies against ISV in serum sample IHUS#B09032311A20. In words: ECL bridging assay, drug displacement; competitor of labelled ISV SEQ ID NO:1.
B9 returned a % reduction of 97% and an ECLU confirmatory assay of 570 ECLU.

Take B10: the % reduction is 97% and the ECLU confirmatory assay stood at 628 ECLU.

In a further assay the target is antibodies against ISV in serum sample IHUS#B09032311A3. The description is as above.
With B9, the % reduction worked out at 90% and the ECLU confirmatory assay came out at 228 ECLU.

The molecule B10 came in with a % reduction of 93% and an ECLU confirmatory assay of 156 ECLU.

For the next assay, the target named is serum sample IHUS#B09032311A1. The assay is described as above.
Molecule B9 registered a % reduction of 6% and an ECLU confirmatory assay of 58 ECLU.

Consider B10, for which the % reduction was 8% and the ECLU confirmatory assay was 57 ECLU.
